Results reported in the supplement of paper PMC9233669.
Fewer inactive variants are shown than the library holds.

How the values were obtained:
biotinyl-Phe-oxazolone = test: self-aminoacylation, catalytic enhancement (BFO) (fold over background); higher = more active; k-Seq, kA / k0A0; sequences stand for … in GGGAAUGGAUCCACAUCUACGAAUUC…UUCACUGCAGACUUGACGAAGCUG
Outline: (§1)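 Each biotinyl-aminoacyl-oxazolone, at 2–1250 μM, was incubated with mutagenized RNA pools (0.43 μM) carrying a 21-nt variable region. The 50 μL reactions contained HEPES/NaCl/KCl/MgCl2/CaCl2 buffer with 5% acetonitrile at pH 6.9–7.0 and ran for 90 minutes at room temperature. After streptavidin capture, RNA was measured by qPCR in triplicate and by Illumina sequencing, and catalytic enhancement was calculated as median kA over the uncatalyzed rate from a pseudo-first-order fit of per-sequence fraction reacted.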

biotinyl-Met-oxazolone = test: self-aminoacylation, catalytic enhancement (BMO) (fold over background); higher = more active; k-Seq, kA / k0A0; sequences stand for … in GGGAAUGGAUCCACAUCUACGAAUUC…UUCACUGCAGACUUGACGAAGCUG
Outline: as §1

biotinyl-Val-oxazolone = test: self-aminoacylation, catalytic enhancement (BVO) (fold over background); higher = more active; k-Seq, kA / k0A0; sequences stand for … in GGGAAUGGAUCCACAUCUACGAAUUC…UUCACUGCAGACUUGACGAAGCUG
Outline: as §1

biotinyl-Ile-oxazolone = test: self-aminoacylation, catalytic enhancement (BIO) (fold over background); higher = more active; k-Seq, kA / k0A0; sequences stand for … in GGGAAUGGAUCCACAUCUACGAAUUC…UUCACUGCAGACUUGACGAAGCUG
Outline: as §1

biotinyl-Trp-oxazolone = test: self-aminoacylation, catalytic enhancement (BWO) (fold over background); higher = more active; k-Seq, kA / k0A0; sequences stand for … in GGGAAUGGAUCCACAUCUACGAAUUC…UUCACUGCAGACUUGACGAAGCUG
Outline: as §1

biotinyl-Leu-oxazolone = test: self-aminoacylation, catalytic enhancement (BLO) (fold over background); higher = more active; k-Seq, kA / k0A0; sequences stand for … in GGGAAUGGAUCCACAUCUACGAAUUC…UUCACUGCAGACUUGACGAAGCUG
Outline: as §1

| Sequence | self-aminoacylation (biotinyl-Phe-oxazolone) | self-aminoacylation (biotinyl-Met-oxazolone) | self-aminoacylation (biotinyl-Val-oxazolone) | self-aminoacylation (biotinyl-Ile-oxazolone) | self-aminoacylation (biotinyl-Trp-oxazolone) | self-aminoacylation (biotinyl-Leu-oxazolone) |
| --- | --- | --- | --- | --- | --- | --- |
| AAGUUUGCUAAUAGCCGCAGG [Fam3.1 aminoacylation ribozyme variant] | 0.671 | 0.745 | 0.853 | 0.792 | 0.916 | 0.765 |
| AUUACCCUUGUCGUCGAGUGA [Fam2.1 aminoacylation ribozyme variant] | 2.62 | 1.06 | 1.11 | 1.13 | 0.966 | 1.05 |
| CAGAUUGCUAAUAGUCGCAAG [Fam3.1 aminoacylation ribozyme variant] | 1.9 | 1.24 | 1.28 | 1.37 | 1.31 | 1.23 |
| CUGCUUCAAACUAUCGGUCUG [Fam1A.1 aminoacylation ribozyme variant] | 1.35 | 0.752 | 1.07 | 0.856 | 0.937 | 0.976 |
| AUUCACCUAUGUCAUCAGGUG [Fam2.2 aminoacylation ribozyme variant] | 8.58 | 2.39 | 1.64 | 1.72 | 2.33 | 2.75 |
| AUUCACCUAAGUUAUCGGGUG [Fam2.2 aminoacylation ribozyme variant] | 51 | 6.15 | 3.96 | 3.83 | 5.61 | 8.59 |
| AGUCUCCUAGGUCAUCGGGUG [Fam2.2 aminoacylation ribozyme variant] | 58.7 | 9.95 | 6.91 | 5.63 | 9.36 | 12.9 |
| AUUCACUUCGGUCAUCGGGUG [Fam2.2 aminoacylation ribozyme variant] | 55.8 | 7.48 | 5.73 | 5.12 | 7.68 | 10.1 |
| AUUGACCUAGGUCAUCGGGUG [Fam2.2 aminoacylation ribozyme variant] | 337 | 43.8 | 17.4 | 20.6 | 31.1 | 58.8 |
| CUACUUCAAACAAGCAGUCUG [Fam1A.1 aminoacylation ribozyme variant] | 1.06 | 0.751 | 0.775 | 0.882 | 0.577 | 0.794 |
| CUGCUUCAAACAAUCGGACUG [Fam1A.1 aminoacylation ribozyme variant] | 49.5 | 1.26 | 1.21 | 1.13 | 28.3 | 1.79 |
| CCACACUUCAAGCAACUGGUC [Fam1B.1 aminoacylation ribozyme variant] | 0.699 | 0.52 | 0.616 | 0.57 | 0.338 | 0.505 |
| AUUACCCUGGUCAUCCGGUGA [Fam2.1 aminoacylation ribozyme variant] | 52.5 | 8.7 | 6.25 | 6.78 | 9.05 | 9.32 |
| AUUACCCUGGUCUUCGAGCGA [Fam2.1 aminoacylation ribozyme variant] | 0.753 | 1.09 | 1.23 | 0.901 | 1.16 | 1.11 |
| CUACUACAAUCAAUCGGUCUG [Fam1A.1 aminoacylation ribozyme variant] | 0.981 | 0.616 | 0.682 | 0.767 | 0.669 | 0.699 |
| ACUACCCUGGUAAUCGAGUGA [Fam2.1 aminoacylation ribozyme variant] | 43.4 | 7.36 | 3.16 | 3.32 | 9.29 | 7.43 |
| CUACAUCAAACAAUCGGUCGG [Fam1A.1 aminoacylation ribozyme variant] | 1.36 | 0.954 | 0.981 | 0.773 | 0.994 | 1.16 |
| AUUACACUGCUCAUCGAGUGA [Fam2.1 aminoacylation ribozyme variant] | 1.51 | 1.8 | 1.61 | 1.55 | 2.31 | 1.72 |
| CCACACUUGAAGCAAUGGGUC [Fam1B.1 aminoacylation ribozyme variant] | 1.26 | 0.696 | 0.811 | 0.99 | 0.833 | 0.739 |
| CUACGACAAACAAUCGGUCUG [Fam1A.1 aminoacylation ribozyme variant] | 1.69 | 0.713 | 0.654 | 0.748 | 0.855 | 0.655 |
| AUACACCUAGGUCAUUGGGUG [Fam2.2 aminoacylation ribozyme variant] | 13.3 | 2.36 | 2.24 | 2.02 | 3.17 | 2.14 |
| AUUACCCUUGUCAUGGAGUGA [Fam2.1 aminoacylation ribozyme variant] | 22.1 | 4.62 | 2.76 | 2.87 | 5.67 | 5.03 |
| CCACACUUCAAGCAACGGGUC [Fam1B.1 aminoacylation ribozyme variant] | 0.777 | 0.626 | 0.81 | 0.624 | 0.464 | 0.569 |
| AUUACUCAGGUCAUCGAGUGA [Fam2.1 aminoacylation ribozyme variant] | 13.2 | 3.58 | 2.57 | 2.41 | 4.11 | 3.72 |
| AUUACCCUGGUGAUCGGGUGA [Fam2.1 aminoacylation ribozyme variant] | 39.5 | 5.18 | 4.27 | 3.43 | 6.86 | 7.07 |
| GAGUUUGCUAAUAGUCGCAUG [Fam3.1 aminoacylation ribozyme variant] | 2.24 | 1.59 | 1.44 | 1.59 | 1.17 | 1.25 |

| Sequence | self-aminoacylation (biotinyl-Phe-oxazolone) | self-aminoacylation (biotinyl-Met-oxazolone) | self-aminoacylation (biotinyl-Val-oxazolone) | self-aminoacylation (biotinyl-Ile-oxazolone) | self-aminoacylation (biotinyl-Trp-oxazolone) | self-aminoacylation (biotinyl-Leu-oxazolone) |
| --- | --- | --- | --- | --- | --- | --- |
| CUAGUUCAAACAAUCGGUCUA [Fam1A.1 aminoacylation ribozyme variant] | 2.81 | 0.777 | 0.759 | 0.813 | 1.43 | 0.647 |
| AUGACCCUGGUCAUCGGGUGA [Fam2.1 aminoacylation ribozyme variant] | 571 | 90.6 | 35.1 | 31.9 | 94.9 | 99 |
| CCACACUUCAAGCGCUCGGUC [Fam1B.1 aminoacylation ribozyme variant] | 3.37 | 0.81 | 1.09 | 1.04 | 1.41 | 1.21 |
| AAGUUUCCUAAUAGUCGCAUG [Fam3.1 aminoacylation ribozyme variant] | 2.38 | 1.89 | 1.9 | 2.28 | 2.11 | 1.94 |
| CCACACUUCAAGCCACCGGUC [Fam1B.1 aminoacylation ribozyme variant] | 1.28 | 1.43 | 2.12 | 1.64 | 1.23 | 1.47 |
| CCACACGUCAAGCAGUCGGUC [Fam1B.1 aminoacylation ribozyme variant] | 0.584 | 1.05 | 1.69 | 0.995 | 1.17 | 1.26 |
| CCACAAUUCAAGCAAUCGGUA [Fam1B.1 aminoacylation ribozyme variant] | 1.33 | 1.19 | 1.17 | 1.26 | 1.13 | 1.43 |
| CCACUCAUCAAGCAAUCGGUC [Fam1B.1 aminoacylation ribozyme variant] | 0.817 | 0.73 | 0.971 | 0.977 | 0.731 | 0.997 |
| CCACAAUUCAAGCAAUCAGUC [Fam1B.1 aminoacylation ribozyme variant] | 1.54 | 0.673 | 0.876 | 0.933 | 0.762 | 0.763 |
| AUUACCCUGCUCAUGGAGUGA [Fam2.1 aminoacylation ribozyme variant] | 63.7 | 9.54 | 4.47 | 4.53 | 12.3 | 10.1 |
| AAGUUUGGUAAUAGACGCAAG [Fam3.1 aminoacylation ribozyme variant] | 0.706 | 0.453 | 0.487 | 0.574 | 0.575 | 0.442 |
| CUACUUCAUACAAUCGGACUG [Fam1A.1 aminoacylation ribozyme variant] | 0.573 | 0.418 | 0.676 | 0.751 | 0.387 | 0.609 |
| AUUACCCUCGUCAUCAAGUGA [Fam2.1 aminoacylation ribozyme variant] | 6.71 | 2.96 | 2.19 | 1.92 | 4.2 | 2.87 |
| CUACUUCCAACAAUCGGUCUA [Fam1A.1 aminoacylation ribozyme variant] | 0.924 | 0.632 | 0.892 | 0.839 | 0.598 | 0.701 |
| AACUUGGCUAAUAGUCGCAAG [Fam3.1 aminoacylation ribozyme variant] | 2.88 | 2 | 1.71 | 2.42 | 2.31 | 2.62 |
| AUGCACCUAGGUCAUCGGAUG [Fam2.2 aminoacylation ribozyme variant] | 0.614 | 0.919 | 1.23 | 1.26 | 1.25 | 1.11 |
| AUCACCCUGGUUAUCGAGUGA [Fam2.1 aminoacylation ribozyme variant] | 86.5 | 12 | 5.37 | 4.98 | 12.2 | 13.5 |
| CUGCUUCAAAGAAUCGGUCUG [Fam1A.1 aminoacylation ribozyme variant] | 14.5 | 1.19 | 0.891 | 1.04 | 11.7 | 1.39 |
| GUUACCCUGGUCAUCGAAUGA [Fam2.1 aminoacylation ribozyme variant] | 1.45 | 1.52 | 1.81 | 1.58 | 2.55 | 1.84 |
| AAGUUUGCAAUUAGUCGCAAG [Fam3.1 aminoacylation ribozyme variant] | 0.786 | 0.922 | 0.898 | 1.08 | 0.6 | 0.909 |
| AUACUUCAAACAAUCGGACUG [Fam1A.1 aminoacylation ribozyme variant] | 3.32 | 0.548 | 0.666 | 0.748 | 2.34 | 0.522 |
| AUUGCCCUGGUCAUCGAAUGA [Fam2.1 aminoacylation ribozyme variant] | 0.641 | 1.29 | 1.29 | 1.05 | 0.773 | 1.34 |
| AUUCACCUAGGUCAUCUGGGG [Fam2.2 aminoacylation ribozyme variant] | 2.49 | 1.83 | 1.5 | 1.63 | 1.54 | 1.9 |
| AUUACCCUCGUCAUCCAGUGA [Fam2.1 aminoacylation ribozyme variant] | 1.18 | 1.51 | 1.29 | 1.44 | 1.02 | 1.94 |
| AUUACACUGGUCUUCGAGUGA [Fam2.1 aminoacylation ribozyme variant] | 18.8 | 3.75 | 2.87 | 2.75 | 6.04 | 4.42 |
